Measurements taken from article PMC12543323, “IFIT1 is rapidly evolving and exhibits disparate antiviral activities across 11 mammalian orders”.

Tests used:
human IFIT1 = biological target: T1, human IFIT1 (Homo sapiens, UniProt P09914 1-478); assay: EMSA; 50 mM Tris pH 8.0 ([…], room temperature 20 min; […]; details: protein: recombinant; tags: N-terminal 6xHis-SUMO (smt3) removed by Ulp1; label: none (SYBR Gold post-stain)
T1 sequence: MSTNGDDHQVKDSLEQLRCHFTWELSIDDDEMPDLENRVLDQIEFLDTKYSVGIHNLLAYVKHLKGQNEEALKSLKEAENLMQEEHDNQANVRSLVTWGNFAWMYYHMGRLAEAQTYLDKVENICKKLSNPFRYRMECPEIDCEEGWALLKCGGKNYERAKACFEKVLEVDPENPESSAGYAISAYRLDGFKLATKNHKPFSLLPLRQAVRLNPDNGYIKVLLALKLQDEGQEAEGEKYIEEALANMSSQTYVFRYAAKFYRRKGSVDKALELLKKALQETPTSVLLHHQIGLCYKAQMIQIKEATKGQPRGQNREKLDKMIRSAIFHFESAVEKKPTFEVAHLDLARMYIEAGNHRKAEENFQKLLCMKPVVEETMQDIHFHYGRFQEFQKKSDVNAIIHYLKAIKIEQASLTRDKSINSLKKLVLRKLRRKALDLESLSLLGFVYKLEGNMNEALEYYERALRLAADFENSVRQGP

human IFIT1 R187H = biological target: T2, human IFIT1 R187H (Homo sapiens, UniProt P09914 1-478, R187H); assay: as above; details: protein: recombinant; tags: N-terminal 6xHis-SUMO (smt3) removed by Ulp1; label: none (SYBR Gold post-stain)
T2 sequence: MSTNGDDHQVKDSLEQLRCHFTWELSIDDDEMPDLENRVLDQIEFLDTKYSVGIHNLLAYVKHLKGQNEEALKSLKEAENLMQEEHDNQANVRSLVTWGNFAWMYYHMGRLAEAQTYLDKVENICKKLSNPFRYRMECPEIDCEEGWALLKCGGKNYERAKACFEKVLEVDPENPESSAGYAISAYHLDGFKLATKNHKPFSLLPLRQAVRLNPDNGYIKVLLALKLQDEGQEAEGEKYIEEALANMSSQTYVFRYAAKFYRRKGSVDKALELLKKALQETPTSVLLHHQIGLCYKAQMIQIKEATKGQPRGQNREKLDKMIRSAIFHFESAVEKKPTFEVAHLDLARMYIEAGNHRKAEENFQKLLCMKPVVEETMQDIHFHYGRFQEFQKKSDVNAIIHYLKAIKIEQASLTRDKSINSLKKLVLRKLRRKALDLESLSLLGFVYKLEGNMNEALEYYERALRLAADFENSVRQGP

B1: Cap0 VEEV TC-83 5' UTR RNA (41 nt) (ssRNA)
RNA: AUAGGCGGCGCAUGAGAGAAGCCCAGACCAAUUACCUACCC
modifications: 5' Cap0 (m7GpppA, no 2'-O methylation; at least 95% by LC/MS)
binding result (human IFIT1): binds
binding result (human IFIT1 R187H): no binding
